Test results as given in US7026125, “Heterodimers of retinoid X receptors (RXRS) and other steroid hormone receptors” (Ligand Pharmaceuticals).

What was measured:
Conditions in all cases: label: 32P
TRα/RXRα heterodimer = TRα/RXRα heterodimer (UniProt P10827-2;P19793 P10827-2:1-410,P19793:1-462); assay: EMSA; at least an order of magnitude more effective than either alone; T3 or RA no clear effect
Description: (a) In vitro synthesized TRα, TRβ, RARα, RARβ, RARγ and TRα2 receptor proteins were preincubated either with (+) or without (−) equal amount of in vitro synthesized RXRα protein at room temperature for 10 minutes. Following this preincubation, the reaction mixtures were incubated with ^32p-labelled palindromic TRE (for 1 sequence see FIG. 2a) and analyzed by gel retardation assay as described in Experimental Procedures. […] As a control, equal amounts of TRα and RARα proteins were also mixed and incubated with labelled TRE.
In vitro translated receptor protein (1 to 5 μl depending on the translation efficiency) was incubated with the ^32P-labeled oligonucleotides in a 20-μl reaction mixture containing 10 mM hepes buffer, pH 7.9, 50 mM KCl, 1 mM DTT, 2.5 mM MgCl, 10% glycerol, and 1 μg of poly(dI-dC) at 25° C. for 20 minutes. In general, relative low receptor concentration was used to obtain the clear effect of heterodimer formation. The reaction mixture was then loaded on a 5% nondenaturing ployacrylamide gel containing 0.5×TBE (1×TBE=0.089 M Tris-borate, 0.089 M boric acid, and 0.002 M EDTA). To analyze the effect of RXRα or the nuclear proteins on receptor DNA binding activity, RXRα or the cell extracts were preincubated with receptor protein at room temperature for 10 minutes before performing the DNA binding assay. […]

TRαm2 = target: T1, TRαm2 (UniProt P10827-2 P10827-2:1-213, C-terminal deletion of 197 aa); assay: EMSA; several complexes
T1 sequence: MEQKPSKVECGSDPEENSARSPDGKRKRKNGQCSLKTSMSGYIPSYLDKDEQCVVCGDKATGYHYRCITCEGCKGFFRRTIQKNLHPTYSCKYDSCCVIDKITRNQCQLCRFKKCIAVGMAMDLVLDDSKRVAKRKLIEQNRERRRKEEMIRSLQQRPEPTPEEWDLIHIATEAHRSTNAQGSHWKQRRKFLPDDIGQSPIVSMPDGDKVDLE
Description: (§1) In vitro translated receptor protein (1 to 5 μl depending on the translation efficiency) was incubated with the ^32P-labeled oligonucleotides in a 20-μl reaction mixture containing 10 mM hepes buffer, pH 7.9, 50 mM KCl, 1 mM DTT, 2.5 mM MgCl, 10% glycerol, and 1 μg of poly(dI-dC) at 25° C. for 20 minutes. In general, relative low receptor concentration was used to obtain the clear effect of heterodimer formation. The reaction mixture was then loaded on a 5% nondenaturing ployacrylamide gel containing 0.5×TBE (1×TBE=0.089 M Tris-borate, 0.089 M boric acid, and 0.002 M EDTA). To analyze the effect of RXRα or the nuclear proteins on receptor DNA binding activity, RXRα or the cell extracts were preincubated with receptor protein at room temperature for 10 minutes before performing the DNA binding assay. When antibody was used, 1 μl of the antiserum was incubated with the specific translation products at room temperature for 45 minutes before performing the experiments described above.

TRαm3 = target: T2, TRαm3 (UniProt P10827-2 P10827-2:1-167, C-terminal deletion of 243 aa); assay: EMSA; several complexes
T2 sequence: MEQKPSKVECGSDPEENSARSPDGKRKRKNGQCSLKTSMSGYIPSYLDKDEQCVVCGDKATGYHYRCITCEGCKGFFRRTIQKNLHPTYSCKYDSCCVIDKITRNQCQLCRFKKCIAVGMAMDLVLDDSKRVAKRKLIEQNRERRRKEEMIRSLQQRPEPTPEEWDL
Description: as §1

RARγ + RXRαm5 = RARγ + RXRαm5 (UniProt P13631;P19793 P13631:1-454,P19793:198-462, RXRα N-terminal deletion of 198 aa including DNA binding domain); assay: EMSA
Description: as §1

RARγ/RXRαm3 = RARγ/RXRαm3 (UniProt P13631;P19793 P13631:1-454,P19793:28-462, RXRα N-terminal deletion of 28 aa); assay: EMSA
Description: as §1

Chain of RARγ/RXRαm3 (P13631 whole entry, stated change not applied, chain 1 of 2): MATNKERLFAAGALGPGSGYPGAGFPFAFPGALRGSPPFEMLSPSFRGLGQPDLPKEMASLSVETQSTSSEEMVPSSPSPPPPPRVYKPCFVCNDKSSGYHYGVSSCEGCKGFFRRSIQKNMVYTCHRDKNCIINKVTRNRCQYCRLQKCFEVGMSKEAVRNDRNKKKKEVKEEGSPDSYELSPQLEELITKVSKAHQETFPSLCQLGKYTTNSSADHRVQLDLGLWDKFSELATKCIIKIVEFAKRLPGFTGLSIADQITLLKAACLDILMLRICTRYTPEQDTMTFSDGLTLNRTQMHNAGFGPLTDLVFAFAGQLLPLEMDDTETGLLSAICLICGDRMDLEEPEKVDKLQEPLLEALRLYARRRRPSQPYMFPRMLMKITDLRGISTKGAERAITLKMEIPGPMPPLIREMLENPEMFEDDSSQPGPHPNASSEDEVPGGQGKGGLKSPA
Chain of RARγ/RXRαm3 (P19793 29-462, stated change not applied, chain 2 of 2): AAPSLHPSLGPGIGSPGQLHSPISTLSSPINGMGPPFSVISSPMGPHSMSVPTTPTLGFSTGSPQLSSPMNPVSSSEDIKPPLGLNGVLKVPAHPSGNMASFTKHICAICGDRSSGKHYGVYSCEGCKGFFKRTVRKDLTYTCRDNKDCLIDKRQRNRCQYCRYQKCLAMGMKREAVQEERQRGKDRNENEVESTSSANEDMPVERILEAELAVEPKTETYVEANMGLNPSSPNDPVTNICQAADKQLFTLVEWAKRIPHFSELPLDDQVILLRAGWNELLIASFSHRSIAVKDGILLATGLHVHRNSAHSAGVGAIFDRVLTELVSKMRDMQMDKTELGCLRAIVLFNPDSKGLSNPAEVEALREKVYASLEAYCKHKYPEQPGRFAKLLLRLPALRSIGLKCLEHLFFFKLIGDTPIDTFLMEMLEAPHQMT
Chain of RARγ + RXRαm5 (P13631 whole entry, stated change not applied, chain 1 of 2, the tested form may be a part): as the sequence (P13631 whole entry, stated change not applied, chain 1 of 2) above
Chain of RARγ + RXRαm5 (P19793 199-462, stated change not applied, chain 2 of 2): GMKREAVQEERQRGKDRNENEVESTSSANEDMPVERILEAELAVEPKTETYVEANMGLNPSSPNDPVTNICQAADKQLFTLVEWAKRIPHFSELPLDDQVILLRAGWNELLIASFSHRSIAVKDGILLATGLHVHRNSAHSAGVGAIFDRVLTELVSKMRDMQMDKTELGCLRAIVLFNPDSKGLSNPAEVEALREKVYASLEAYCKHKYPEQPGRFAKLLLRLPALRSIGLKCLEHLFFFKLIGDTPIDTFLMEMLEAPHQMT
Chain of TRα/RXRα heterodimer (P19793 whole entry, one chain of several): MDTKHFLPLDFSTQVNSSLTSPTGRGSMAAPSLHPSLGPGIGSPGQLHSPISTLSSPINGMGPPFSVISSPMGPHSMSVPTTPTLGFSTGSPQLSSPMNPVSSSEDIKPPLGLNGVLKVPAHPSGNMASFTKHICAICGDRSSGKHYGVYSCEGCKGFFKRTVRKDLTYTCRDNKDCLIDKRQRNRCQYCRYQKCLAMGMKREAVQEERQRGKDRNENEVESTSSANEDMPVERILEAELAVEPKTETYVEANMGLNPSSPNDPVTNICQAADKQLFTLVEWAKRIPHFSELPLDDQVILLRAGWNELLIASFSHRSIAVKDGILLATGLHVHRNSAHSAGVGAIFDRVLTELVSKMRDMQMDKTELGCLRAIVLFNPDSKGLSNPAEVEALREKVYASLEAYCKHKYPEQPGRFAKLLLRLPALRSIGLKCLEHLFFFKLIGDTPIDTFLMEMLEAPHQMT

B1: palindromic TRE (dsDNA)
DNA 1: GATCTCAGGTCATGACCTGAGATC
DNA 2: GATCTCAGGTCATGACCTGAGATC
binding result (TRα/RXRα heterodimer): binds
binding result (TRαm2): binds
binding result (TRαm3): binds
binding result (RARγ + RXRαm5): no binding
binding result (RARγ/RXRαm3): binds
